Legend:
[1] = biological target: CDH23 EC1-5/EC3-5 single-bond fusion protein (asymmetric Fc heterodimer with one EC1-2 binding domain) (mouse) (UniProt Q99PF4); assay: single-molecule force spectroscopy (optical tweezers); single-bond EC1-5/EC3-5 proteins, each on a DNA tether on a streptavidin bead in a dual-beam optical trap; 50 µM Ca2+, TBS buffer, room temperature; Bell-Evans fit of most-probable unbinding forces against loading rate, constants extrapolated to zero force
[2] = biological target: truncated CDH23 EC1-5 dimer fusion protein (two EC1-5 strands) (mouse); assay: BLI; CDH23 biotinylated on its SNAPtag and immobilised on streptavidin-coated PEG-biotin aminopropylsilane sensors; 10–300 nM PCDH15 in solution; TBS-Tween + Ca^2+ buffer, 2 mM Ca^2+; traces of a drift sensor and of PCDH15 lacking EC1-2 subtracted; dissociation fitted with a single exponential; on-rates measured at 300 nM PCDH15 (effective on-rate); Octet Red384

Row | koff [1] [s⁻¹] | mean lifetime of the connection at zero force [2] [s] | Substance
1 | 1.2 | – | PCDH15 EC1-5/EC3-5 single-bond fusion protein (asymmetric Fc heterodimer with one EC1-2 binding domain) (from UniProt Q99PJ1-1 27-1943; Q99PJ1-1 27-1943) (Fc fusion)
2 | – | 27.1 | truncated PCDH15 EC1-5 dimer fusion protein (two EC1-5 strands) (Fc fusion)

— paper PMC7870652
